Data as given in paper PMC3021515.

How the values were obtained:
DmI1529K (Drosophila) [1] = molecular target: DmI1529K (Drosophila) (UniProt P35500)
DmD838C (Drosophila) [2] = molecular target: DmD838C (Drosophila) (UniProt P35500)
DmE1523N (Drosophila) [3] = molecular target: DmE1523N (Drosophila) (UniProt P35500)
mNav1.6 (mouse) [4] = molecular target: mNav1.6 (mouse) (UniProt Q9WTU3)
DmI1529K (Drosophila) [5] = molecular target: DmI1529K (Drosophila) (UniProt P35500); remark: listed apart in the source
L(Dm)Nav1.2 (rat) = L(Dm)Nav1.2 (rat) (UniProt P04775)
DmNav1 (Drosophila) [6] = molecular target: DmNav1 (Drosophila) (UniProt P35500)
DmG904N (Drosophila) [7] = molecular target: DmG904N (Drosophila) (UniProt P35500)
rNav1.3 (rat) [8] = molecular target: rNav1.3 (rat) (UniProt P08104)
[9] = molecular target: L(1.2)DmNav1 (Drosophila) (UniProt P35500)
DmK1526L (Drosophila) = DmK1526L (Drosophila) (UniProt P35500)
DmR1530Y (Drosophila) = DmR1530Y (Drosophila) (UniProt P35500)
DmT1532D (Drosophila) = DmT1532D (Drosophila) (UniProt P35500)
rNav1.2 (rat) [10] = molecular target: rNav1.2 (rat) (UniProt P04775)
[11] = molecular target: DmI1529K/R1530Y (Drosophila) (UniProt P35500)
DmL899C (Drosophila) [12] = molecular target: DmL899C (Drosophila) (UniProt P35500)
DmE896C (Drosophila) [13] = molecular target: DmE896C (Drosophila) (UniProt P35500)
DmD1525E (Drosophila) [14] = molecular target: DmD1525E (Drosophila) (UniProt P35500)
DmM5 (Drosophila) = DmM5 (Drosophila) (UniProt P35500)
DmI1534L (Drosophila) = DmI1534L (Drosophila) (UniProt P35500)
rNav1.3 (rat) [15] = molecular target: rNav1.3 (rat) (UniProt P08104); remark: listed apart in the source
DmD838C (Drosophila) [16] = molecular target: DmD838C (Drosophila) (UniProt P35500); remark: listed apart in the source
DmE1523N (Drosophila) [17] = molecular target: DmE1523N (Drosophila) (UniProt P35500); remark: listed apart in the source
mNav1.6 (mouse) [18] = molecular target: mNav1.6 (mouse) (UniProt Q9WTU3); remark: listed apart in the source
DmI1529K (Drosophila) [19] = molecular target: DmI1529K (Drosophila) (UniProt P35500); remark: listed apart in the source
DmNav1 (Drosophila) [20] = molecular target: DmNav1 (Drosophila) (UniProt P35500); remark: listed apart in the source
DmG904N (Drosophila) [21] = molecular target: DmG904N (Drosophila) (UniProt P35500); remark: listed apart in the source
rNav1.3 (rat) [22] = molecular target: rNav1.3 (rat) (UniProt P08104); remark: listed apart in the source
rNav1.2 (rat) [23] = molecular target: rNav1.2 (rat) (UniProt P04775); remark: listed apart in the source
DmL899C (Drosophila) [24] = molecular target: DmL899C (Drosophila) (UniProt P35500); remark: listed apart in the source
DmE896C (Drosophila) [25] = molecular target: DmE896C (Drosophila) (UniProt P35500); remark: listed apart in the source
DmD1525E (Drosophila) [26] = molecular target: DmD1525E (Drosophila) (UniProt P35500); remark: listed apart in the source

Substance: BmK IT2 (natural protein)
- EC50 of BmK IT2 from the currents it induces at −40 mV (activation threshold), two-electrode voltage clamp, Xenopus oocytes (unit as printed in the text; the table gives µM) (DmI1529K (Drosophila) [1]): 0.0156 µM
- shift of the half-maximal activation voltage (ΔV1/2) by 2 µM BmK IT2 with prepulse, two-electrode voltage clamp, Xenopus oocytes (DmD838C (Drosophila) [2]): -10.4 mV
- shift of the half-maximal activation voltage (ΔV1/2) by 2 µM BmK IT2 with prepulse, two-electrode voltage clamp, Xenopus oocytes (DmE1523N (Drosophila) [3]): -12.1 mV
- shift of the half-maximal activation voltage (ΔV1/2) by 2 µM BmK IT2 with prepulse, two-electrode voltage clamp, Xenopus oocytes (mNav1.6 (mouse) [4]): 0.32 mV
- shift of the half-maximal activation voltage (ΔV1/2) by 2 µM BmK IT2 with prepulse, two-electrode voltage clamp, Xenopus oocytes (DmI1529K (Drosophila) [5]): 0.12 mV
- shift of the half-maximal activation voltage (ΔV1/2) by 2 µM BmK IT2 with prepulse, two-electrode voltage clamp, Xenopus oocytes (L(Dm)Nav1.2 (rat)): -5.05 mV
- shift of the half-maximal activation voltage (ΔV1/2) by 2 µM BmK IT2 with prepulse, two-electrode voltage clamp, Xenopus oocytes (DmNav1 (Drosophila) [6]): -11.9 mV
- shift of the half-maximal activation voltage (ΔV1/2) by 2 µM BmK IT2 with prepulse, two-electrode voltage clamp, Xenopus oocytes (DmG904N (Drosophila) [7]): 0.66 mV
- shift of the half-maximal activation voltage (ΔV1/2) by 2 µM BmK IT2 with prepulse, two-electrode voltage clamp, Xenopus oocytes (rNav1.3 (rat) [8]): 0.9 mV
- shift of the half-maximal activation voltage (ΔV1/2) by 2 µM BmK IT2 with prepulse, two-electrode voltage clamp, Xenopus oocytes [9]: -12.5 mV
- shift of the half-maximal activation voltage (ΔV1/2) by 2 µM BmK IT2 with prepulse, two-electrode voltage clamp, Xenopus oocytes (DmK1526L (Drosophila)): -12.3 mV
- shift of the half-maximal activation voltage (ΔV1/2) by 2 µM BmK IT2 with prepulse, two-electrode voltage clamp, Xenopus oocytes (DmR1530Y (Drosophila)): -5.11 mV
- shift of the half-maximal activation voltage (ΔV1/2) by 2 µM BmK IT2 with prepulse, two-electrode voltage clamp, Xenopus oocytes (DmT1532D (Drosophila)): -9.44 mV
- shift of the half-maximal activation voltage (ΔV1/2) by 2 µM BmK IT2 with prepulse, two-electrode voltage clamp, Xenopus oocytes (rNav1.2 (rat) [10]): 1.14 mV
- shift of the half-maximal activation voltage (ΔV1/2) by 2 µM BmK IT2 with prepulse, two-electrode voltage clamp, Xenopus oocytes [11]: -5.06 mV
- shift of the half-maximal activation voltage (ΔV1/2) by 2 µM BmK IT2 with prepulse, two-electrode voltage clamp, Xenopus oocytes (DmL899C (Drosophila) [12]): -1.39 mV
- shift of the half-maximal activation voltage (ΔV1/2) by 2 µM BmK IT2 with prepulse, two-electrode voltage clamp, Xenopus oocytes (DmE896C (Drosophila) [13]): -1.86 mV
- shift of the half-maximal activation voltage (ΔV1/2) by 2 µM BmK IT2 with prepulse, two-electrode voltage clamp, Xenopus oocytes (DmD1525E (Drosophila) [14]): -9.73 mV
- shift of the half-maximal activation voltage (ΔV1/2) by 2 µM BmK IT2 with prepulse, two-electrode voltage clamp, Xenopus oocytes (DmM5 (Drosophila)): -6.56 mV
- shift of the half-maximal activation voltage (ΔV1/2) by 2 µM BmK IT2 with prepulse, two-electrode voltage clamp, Xenopus oocytes (DmI1534L (Drosophila)): -7.99 mV
- shift of the half-maximal activation voltage (ΔV1/2) by 50 µM BmK IT2, two-electrode voltage clamp, Xenopus oocytes (data not shown) (rNav1.3 (rat) [15]): -4.84 mV
- EC50 of BmK IT2 from the currents it induces at −40 mV (activation threshold), two-electrode voltage clamp, Xenopus oocytes (DmD838C (Drosophila) [16]): 3.6 µM
- EC50 of BmK IT2 from the currents it induces at −40 mV (activation threshold), two-electrode voltage clamp, Xenopus oocytes (DmE1523N (Drosophila) [17]): 2.4 µM
- EC50 of BmK IT2 from the currents it induces at −40 mV (activation threshold), two-electrode voltage clamp, Xenopus oocytes (mNav1.6 (mouse) [18]): > 50 µM
- EC50 of BmK IT2 from the currents it induces at −40 mV (activation threshold), two-electrode voltage clamp, Xenopus oocytes (DmI1529K (Drosophila) [19]): 15.6 µM
- EC50 of BmK IT2 from the currents it induces at −40 mV (activation threshold), two-electrode voltage clamp, Xenopus oocytes (DmNav1 (Drosophila) [20]): 2.9 µM
- EC50 of BmK IT2 from the currents it induces at −40 mV (activation threshold), two-electrode voltage clamp, Xenopus oocytes (DmG904N (Drosophila) [21]): > 50 µM
- EC50 of BmK IT2 from the currents it induces at −40 mV (activation threshold), two-electrode voltage clamp, Xenopus oocytes (rNav1.3 (rat) [22]): > 20 µM
- EC50 of BmK IT2 from the currents it induces at −40 mV (activation threshold), two-electrode voltage clamp, Xenopus oocytes (rNav1.2 (rat) [23]): > 50 µM
- EC50 of BmK IT2 from the currents it induces at −40 mV (activation threshold), two-electrode voltage clamp, Xenopus oocytes (DmL899C (Drosophila) [24]): > 35 µM
- EC50 of BmK IT2 from the currents it induces at −40 mV (activation threshold), two-electrode voltage clamp, Xenopus oocytes (DmE896C (Drosophila) [25]): > 35 µM
- EC50 of BmK IT2 from the currents it induces at −40 mV (activation threshold), two-electrode voltage clamp, Xenopus oocytes (DmD1525E (Drosophila) [26]): 3.3 µM
